B1: library; numbered along this chain (parent)
chain: MRKPRAAVGSGHRKQAASQEGRQKHAKNNSQAKPSACDGLARQPEEVVLQASVSSYHLFRDVAEVTAFRGSLLSWYDQEKRDLPWRRRAEDEMDLDRRAYAVWVSEVMLQQTQVATVINYYTGWMQKWPTLQDLASASLEEVNQLWAGLGYYSRGRRLQEGARKVVEELGGHMPRTAETLQQLLPGVGRYTAGAIASIAFGQATGVVDGNVARVLCRVRAIGADPSSTLVSQQLWGLAQQLVDPARPGDFNQAAMELGATVCTPQRPLCSQCPVESLCRARQRVEQEQLLASGSLSGSPDVEECAPNTGQCHLCLPPSEPWDQTLGVVNFPRKASRKPPREESSATCVLEQPGALGAQILLVQRPNSGLLAGLWEFPSVTWEPSEQLQRKALLQELQRWAGPLPATHLRHLGEVVHTFSHIKLTYQVYGLALEGQTPVTTVPPGARWLTQEEFHTAAVSTAMKKVFRVYQGQQPGTCMGSKRSQVSSPCSRKKPRMGQQVLDNFFRSHISTDAHSLNSAAQ

Variants of: B1
Assay: 8OG:A repair function score (normalized; synonymous = 0, nonsense = -1) (normalized log-likelihood score); higher = more repair activity (WT-like)
Settings: with 8OG:A DNA repair reporter (GFP) in HEK-293 MUTYH KO cells
Summary of the method: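 After 72 h, viable mCherry+ cells were split into GFP+ (repair) and GFP− bins in three replicates per tile. These cells were MUTYH knockout HEK-293 cells holding lentiviral MUTYH cDNA NNN codon-scan libraries, kept in 10 pg/ml doxycycline and co-transfected with mCherry plus an 8OG:A GFP repair reporter. Sequencing of tile amplicons gave per-tile Rosace fitness scores, normalized into a repair function score anchored on synonymous and nonsense distributions. Synonymous medians were fixed at 0, nonsense at -1, and variants under 300 counts per million at the start were removed.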
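Further: cells sorted at 72 h after reporter transfection.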

Row | Variant | 8OG:A repair function score
1 | MRKPRAAVGSGHRKQAASQEGRQKHAKNNSQAKPSACDGLARQPEEVVLQASVSSYHLFRDVAEVTAFRGSLLSWYDQEKRDLPWRRRAEDEMDLDRRAYAVWVSEVMLQQTQVATVINYYTGWMQKWPTLQDLASASLEEVNQLWAGLGYYSRGRRLQEGARKVVEELGGHMPRTAETLQQLLPGVGRYTAGAIASIAFGQATGVVDGNVARVLCRVRAIGADPSSTLVSQQLWGLAQQLVDPARPGDFNQAAMELGATVCTPQRPLCSQCPVESLCRARQRVEQEQLLASGSLSGSPDVEECAPNTGQCHLCLPPSEPWDQTLGVVNFPRKASRKPPREESSATCVLEQPGALGAQILLVQRPNSGLLAGLWEFPSVTWEPSEQLQRKALLQELQRWAGPLPATHLRHLGEVVHTFSHIKLTYQVYPLALEGQTPVTTVPPGARWLTQEEFHTAAVSTAMKKVFRVYQGQQPGTCMGSKRSQVSSPCSRKKPRMGQQVLDNFFRSHISTDAHSLNSAAQ [G429P] | -1.12
2 | MRKPRAAVGSGHRKQAASQEGRQKHAKNNSQAKPSACDGLARQPEEVVLQASVSSYHLFRDVAEVTAFRGSLLSWYDQEKRDLPWRRRAEDEMDLDRRAYAVWVSEVMLQQTQVATVINYYTGWMQKWPTLQDLASASLEEVNQLWAGLGYYSRGRRLQEGARKVVEELGGHMPRTAETLQQLLPGVGRYTAGAIASIAFGQATGVVDGNVARVLCRVRAIGADPSSTLVSQQLWGLAQQLVDPARPGDFNQAAMELGATVCTPQRPLCSQCPVESLCRARQRVEQEQLLASGSLSGSPDVEECAPNTGQCHLCLPPSEPWDQTLGVVNFPRKASRKPPREESSATCVLEQPGALGAQILLVQRPNSGLLAGLWEFPSVTWEPSEQLQRKALLQELQRWAGPLPATHLRHLGEVVHTFSHIKLTYQVYWLALEGQTPVTTVPPGARWLTQEEFHTAAVSTAMKKVFRVYQGQQPGTCMGSKRSQVSSPCSRKKPRMGQQVLDNFFRSHISTDAHSLNSAAQ [G429W] | -0.114
3 | MRKPRAAVGSGHRKQAASQEGRQKHAKNNSQAKPSACDGLARQPEEVVLQASVSSYHLFRDVAEVTAFRGSLLSWYDQEKRDLPWRRRAEDEMDLDRRAYAVWVSEVMLQQTQVATVINYYTGWMQKWPTLQDLASASLEEVNQLWAGLGYYSRGRRLQEGARKVVEELGGHMPRTAETLQQLLPGVGRYTAGAIASIAFGQATGVVDGNVARVLCRVRAIGADPSSTLVSQQLWGLAQQLVDPARPGDFNQAAMELGATVCTPQRPLCSQCPVESLCRARQRVEQEQLLASGSLSGSPDVEECAPNTGQCHLCLPPSEPWDQTLGVVNFPRKASRKPPREESSATCVLEQPGALGAQILLVQRPNSGLLAGLWEFPSVTWEPSEQLQRKALLQELQRWAGPLPATHLRHLGEVVHTFSHIKLTYQVYVLALEGQTPVTTVPPGARWLTQEEFHTAAVSTAMKKVFRVYQGQQPGTCMGSKRSQVSSPCSRKKPRMGQQVLDNFFRSHISTDAHSLNSAAQ [G429V] | -0.00866
4 | MRKPRAAVGSGHRKQAASQEGRQKHAKNNSQAKPSACDGLARQPEEVVLQASVSSYHLFRDVAEVTAFRGSLLSWYDQEKRDLPWRRRAEDEMDLDRRAYAVWVSEVMLQQTQVATVINYYTGWMQKWPTLQDLASASLEEVNQLWAGLGYYSRGRRLQEGARKVVEELGGHMPRTAETLQQLLPGVGRYTAGAIASIAFGQATGVVDGNVARVLCRVRAIGADPSSTLVSQQLWGLAQQLVDPARPGDFNQAAMELGATVCTPQRPLCSQCPVESLCRARQRVEQEQLLASGSLSGSPDVEECAPNTGQCHLCLPPSEPWDQTLGVVNFPRKASRKPPREESSATCVLEQPGALGAQILLVQRPNSGLLAGLWEFPSVTWEPSEQLQRKALLQELQRWAGPLPATHLRHLGEVVHTFSHIKLTYQVYRLALEGQTPVTTVPPGARWLTQEEFHTAAVSTAMKKVFRVYQGQQPGTCMGSKRSQVSSPCSRKKPRMGQQVLDNFFRSHISTDAHSLNSAAQ [G429R] | -0.355
5 | MRKPRAAVGSGHRKQAASQEGRQKHAKNNSQAKPSACDGLARQPEEVVLQASVSSYHLFRDVAEVTAFRGSLLSWYDQEKRDLPWRRRAEDEMDLDRRAYAVWVSEVMLQQTQVATVINYYTGWMQKWPTLQDLASASLEEVNQLWAGLGYYSRGRRLQEGARKVVEELGGHMPRTAETLQQLLPGVGRYTAGAIASIAFGQATGVVDGNVARVLCRVRAIGADPSSTLVSQQLWGLAQQLVDPARPGDFNQAAMELGATVCTPQRPLCSQCPVESLCRARQRVEQEQLLASGSLSGSPDVEECAPNTGQCHLCLPPSEPWDQTLGVVNFPRKASRKPPREESSATCVLEQPGALGAQILLVQRPNSGLLAGLWEFPSVTWEPSEQLQRKALLQELQRWAGPLPATHLRHLGEVVHTFSHIKLTYQVYTLALEGQTPVTTVPPGARWLTQEEFHTAAVSTAMKKVFRVYQGQQPGTCMGSKRSQVSSPCSRKKPRMGQQVLDNFFRSHISTDAHSLNSAAQ [G429T] | -0.219
6 | MRKPRAAVGSGHRKQAASQEGRQKHAKNNSQAKPSACDGLARQPEEVVLQASVSSYHLFRDVAEVTAFRGSLLSWYDQEKRDLPWRRRAEDEMDLDRRAYAVWVSEVMLQQTQVATVINYYTGWMQKWPTLQDLASASLEEVNQLWAGLGYYSRGRRLQEGARKVVEELGGHMPRTAETLQQLLPGVGRYTAGAIASIAFGQATGVVDGNVARVLCRVRAIGADPSSTLVSQQLWGLAQQLVDPARPGDFNQAAMELGATVCTPQRPLCSQCPVESLCRARQRVEQEQLLASGSLSGSPDVEECAPNTGQCHLCLPPSEPWDQTLGVVNFPRKASRKPPREESSATCVLEQPGALGAQILLVQRPNSGLLAGLWEFPSVTWEPSEQLQRKALLQELQRWAGPLPATHLRHLGEVVHTFSHIKLTYQVYYLALEGQTPVTTVPPGARWLTQEEFHTAAVSTAMKKVFRVYQGQQPGTCMGSKRSQVSSPCSRKKPRMGQQVLDNFFRSHISTDAHSLNSAAQ [G429Y] | -0.0542
7 | MRKPRAAVGSGHRKQAASQEGRQKHAKNNSQAKPSACDGLARQPEEVVLQASVSSYHLFRDVAEVTAFRGSLLSWYDQEKRDLPWRRRAEDEMDLDRRAYAVWVSEVMLQQTQVATVINYYTGWMQKWPTLQDLASASLEEVNQLWAGLGYYSRGRRLQEGARKVVEELGGHMPRTAETLQQLLPGVGRYTAGAIASIAFGQATGVVDGNVARVLCRVRAIGADPSSTLVSQQLWGLAQQLVDPARPGDFNQAAMELGATVCTPQRPLCSQCPVESLCRARQRVEQEQLLASGSLSGSPDVEECAPNTGQCHLCLPPSEPWDQTLGVVNFPRKASRKPPREESSATCVLEQPGALGAQILLVQRPNSGLLAGLWEFPSVTWEPSEQLQRKALLQELQRWAGPLPATHLRHLGEVVHTFSHIKLTYQVYQLALEGQTPVTTVPPGARWLTQEEFHTAAVSTAMKKVFRVYQGQQPGTCMGSKRSQVSSPCSRKKPRMGQQVLDNFFRSHISTDAHSLNSAAQ [G429Q] | -0.283
8 | MRKPRAAVGSGHRKQAASQEGRQKHAKNNSQAKPSACDGLARQPEEVVLQASVSSYHLFRDVAEVTAFRGSLLSWYDQEKRDLPWRRRAEDEMDLDRRAYAVWVSEVMLQQTQVATVINYYTGWMQKWPTLQDLASASLEEVNQLWAGLGYYSRGRRLQEGARKVVEELGGHMPRTAETLQQLLPGVGRYTAGAIASIAFGQATGVVDGNVARVLCRVRAIGADPSSTLVSQQLWGLAQQLVDPARPGDFNQAAMELGATVCTPQRPLCSQCPVESLCRARQRVEQEQLLASGSLSGSPDVEECAPNTGQCHLCLPPSEPWDQTLGVVNFPRKASRKPPREESSATCVLEQPGALGAQILLVQRPNSGLLAGLWEFPSVTWEPSEQLQRKALLQELQRWAGPLPATHLRHLGEVVHTFSHIKLTYQVYSLALEGQTPVTTVPPGARWLTQEEFHTAAVSTAMKKVFRVYQGQQPGTCMGSKRSQVSSPCSRKKPRMGQQVLDNFFRSHISTDAHSLNSAAQ [G429S] | -0.131
9 | MRKPRAAVGSGHRKQAASQEGRQKHAKNNSQAKPSACDGLARQPEEVVLQASVSSYHLFRDVAEVTAFRGSLLSWYDQEKRDLPWRRRAEDEMDLDRRAYAVWVSEVMLQQTQVATVINYYTGWMQKWPTLQDLASASLEEVNQLWAGLGYYSRGRRLQEGARKVVEELGGHMPRTAETLQQLLPGVGRYTAGAIASIAFGQATGVVDGNVARVLCRVRAIGADPSSTLVSQQLWGLAQQLVDPARPGDFNQAAMELGATVCTPQRPLCSQCPVESLCRARQRVEQEQLLASGSLSGSPDVEECAPNTGQCHLCLPPSEPWDQTLGVVNFPRKASRKPPREESSATCVLEQPGALGAQILLVQRPNSGLLAGLWEFPSVTWEPSEQLQRKALLQELQRWAGPLPATHLRHLGEVVHTFSHIKLTYQVYGEALEGQTPVTTVPPGARWLTQEEFHTAAVSTAMKKVFRVYQGQQPGTCMGSKRSQVSSPCSRKKPRMGQQVLDNFFRSHISTDAHSLNSAAQ [L430E] | -0.36
10 | MRKPRAAVGSGHRKQAASQEGRQKHAKNNSQAKPSACDGLARQPEEVVLQASVSSYHLFRDVAEVTAFRGSLLSWYDQEKRDLPWRRRAEDEMDLDRRAYAVWVSEVMLQQTQVATVINYYTGWMQKWPTLQDLASASLEEVNQLWAGLGYYSRGRRLQEGARKVVEELGGHMPRTAETLQQLLPGVGRYTAGAIASIAFGQATGVVDGNVARVLCRVRAIGADPSSTLVSQQLWGLAQQLVDPARPGDFNQAAMELGATVCTPQRPLCSQCPVESLCRARQRVEQEQLLASGSLSGSPDVEECAPNTGQCHLCLPPSEPWDQTLGVVNFPRKASRKPPREESSATCVLEQPGALGAQILLVQRPNSGLLAGLWEFPSVTWEPSEQLQRKALLQELQRWAGPLPATHLRHLGEVVHTFSHIKLTYQVYGAALEGQTPVTTVPPGARWLTQEEFHTAAVSTAMKKVFRVYQGQQPGTCMGSKRSQVSSPCSRKKPRMGQQVLDNFFRSHISTDAHSLNSAAQ [L430A] | -0.143
11 | MRKPRAAVGSGHRKQAASQEGRQKHAKNNSQAKPSACDGLARQPEEVVLQASVSSYHLFRDVAEVTAFRGSLLSWYDQEKRDLPWRRRAEDEMDLDRRAYAVWVSEVMLQQTQVATVINYYTGWMQKWPTLQDLASASLEEVNQLWAGLGYYSRGRRLQEGARKVVEELGGHMPRTAETLQQLLPGVGRYTAGAIASIAFGQATGVVDGNVARVLCRVRAIGADPSSTLVSQQLWGLAQQLVDPARPGDFNQAAMELGATVCTPQRPLCSQCPVESLCRARQRVEQEQLLASGSLSGSPDVEECAPNTGQCHLCLPPSEPWDQTLGVVNFPRKASRKPPREESSATCVLEQPGALGAQILLVQRPNSGLLAGLWEFPSVTWEPSEQLQRKALLQELQRWAGPLPATHLRHLGEVVHTFSHIKLTYQVYGCALEGQTPVTTVPPGARWLTQEEFHTAAVSTAMKKVFRVYQGQQPGTCMGSKRSQVSSPCSRKKPRMGQQVLDNFFRSHISTDAHSLNSAAQ [L430C] | -0.0232
12 | MRKPRAAVGSGHRKQAASQEGRQKHAKNNSQAKPSACDGLARQPEEVVLQASVSSYHLFRDVAEVTAFRGSLLSWYDQEKRDLPWRRRAEDEMDLDRRAYAVWVSEVMLQQTQVATVINYYTGWMQKWPTLQDLASASLEEVNQLWAGLGYYSRGRRLQEGARKVVEELGGHMPRTAETLQQLLPGVGRYTAGAIASIAFGQATGVVDGNVARVLCRVRAIGADPSSTLVSQQLWGLAQQLVDPARPGDFNQAAMELGATVCTPQRPLCSQCPVESLCRARQRVEQEQLLASGSLSGSPDVEECAPNTGQCHLCLPPSEPWDQTLGVVNFPRKASRKPPREESSATCVLEQPGALGAQILLVQRPNSGLLAGLWEFPSVTWEPSEQLQRKALLQELQRWAGPLPATHLRHLGEVVHTFSHIKLTYQVYGDALEGQTPVTTVPPGARWLTQEEFHTAAVSTAMKKVFRVYQGQQPGTCMGSKRSQVSSPCSRKKPRMGQQVLDNFFRSHISTDAHSLNSAAQ [L430D] | -0.393

Reference: the supplement of paper PMC11908140
